According to patent US20150344570A1 (published 2015):

T1: FcγRIIa H (human, UniProt P12318 34-217)
T1 construct: extracellular domain; also called FcgRIIa H; FcγRIIa type H
T1 sequence (looked up): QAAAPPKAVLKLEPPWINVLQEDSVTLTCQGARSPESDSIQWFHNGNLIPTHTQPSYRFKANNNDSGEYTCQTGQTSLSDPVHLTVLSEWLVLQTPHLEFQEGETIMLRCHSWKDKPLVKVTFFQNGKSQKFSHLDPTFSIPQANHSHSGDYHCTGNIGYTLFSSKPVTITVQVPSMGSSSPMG

T2: FcγRIIb (human, UniProt P31994 43-217)
T2 construct: extracellular domain; also called FcgRIIb; 2b
T2 sequence (looked up): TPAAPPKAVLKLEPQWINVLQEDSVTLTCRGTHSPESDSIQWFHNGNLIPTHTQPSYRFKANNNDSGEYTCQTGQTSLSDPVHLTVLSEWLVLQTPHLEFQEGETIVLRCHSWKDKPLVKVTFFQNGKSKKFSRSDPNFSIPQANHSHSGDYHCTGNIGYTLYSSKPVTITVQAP

T3: FcγRIIb extracellular domain with C-terminal His tag (human, UniProt P31994 43-217)
T3 construct: extracellular domain; also called 2b; FcgRIIb; not shown: His tag at the C terminus
T3 sequence (looked up): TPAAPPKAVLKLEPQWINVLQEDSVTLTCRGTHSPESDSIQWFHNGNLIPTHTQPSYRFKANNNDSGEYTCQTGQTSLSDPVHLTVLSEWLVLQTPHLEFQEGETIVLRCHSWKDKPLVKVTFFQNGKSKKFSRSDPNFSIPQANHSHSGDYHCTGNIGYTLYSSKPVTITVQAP


Legend:
FcγRIIa H [1] = biological target: T1, FcγRIIa H; assay: SPR (Biacore); He/Con_2aH divided by He/Con_2b (FcγRIIa H over FcγRIIb)
FcγRIIa H [2] = biological target: T1, FcγRIIa H; assay: SPR (Biacore), antibody captured, FcγR analyte; binding relative to GpH7-A5/GpH7-B3/GpL16-k0 = 100
FcγRIIb = biological target: T2, FcγRIIb; assay: as above
[3] = biological target: T4, FcγRIIIa extracellular domain with C-terminal His tag (human, UniProt P08637 17-208); assay: SPR (Biacore), relative to GpH7-A5/GpH7-B3/GpL16-k0 = 100
T4 construct: extracellular domain; also called 3a; FcgRIIIa; not shown: His tag at the C terminus
T4 sequence (P08637 17-208): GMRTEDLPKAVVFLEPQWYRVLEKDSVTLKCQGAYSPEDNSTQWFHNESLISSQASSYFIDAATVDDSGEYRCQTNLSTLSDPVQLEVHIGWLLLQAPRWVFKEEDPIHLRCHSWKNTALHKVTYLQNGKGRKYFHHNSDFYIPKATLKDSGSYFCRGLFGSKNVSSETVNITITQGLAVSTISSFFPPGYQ

[4] = biological target: T3, FcγRIIb extracellular domain with …; assay: as above
[5] = biological target: T4, FcγRIIIa extracellular domain with …; assay: SPR (Biacore); ratio of He/Con_3a (FcγRIIIa) to He/Con_2b (FcγRIIb)

Binder	He_2aH/2b (IIaH/IIb) (FcγRIIa H [1])	He/Con_2aH (FcγRIIa H [2])	He/Con_2b (FcγRIIb)	He/Con_3a [3]	He/Con_2b [4]	He_3a/2b (IIIa/IIb) [5]
GpH7-A5/GpH7-B3 variant G237_02A/GpL16-k0 (antibody, human IgG1, kappa, IgG1, anti-glypican-3; also called He Ab) heavy 1: not shown heavy 2: not shown light: DIVMTQSPLSLPVTPGEPASISCQASESLVHSNRNTYLHWYLQKPGQSPQLLIYKVSNRFSGVPDRFSGSGSGTDFTLKISRVEAEDVGVYYCSQNTHVPPTFGQGTKVEIERTVAAPSVFIFPPSDEQLKSGTASVVCLLNNFYPREAKVQWKVDNALQSGNSQESVTEQDSKDSTYSLSSTLTLSKADYEKHKVYACEVTHQGLSSPVTKSFNRGEC	–	–	–	48.8 % (control = 100)	124 % (control = 100)	0.39
GpH7-A5/GpH7-B3 variant G236_11K/GpL16-k0 (antibody, human IgG1, kappa, IgG1, anti-glypican-3; also called He Ab) heavy 1: not shown heavy 2: not shown light: DIVMTQSPLSLPVTPGEPASISCQASESLVHSNRNTYLHWYLQKPGQSPQLLIYKVSNRFSGVPDRFSGSGSGTDFTLKISRVEAEDVGVYYCSQNTHVPPTFGQGTKVEIERTVAAPSVFIFPPSDEQLKSGTASVVCLLNNFYPREAKVQWKVDNALQSGNSQESVTEQDSKDSTYSLSSTLTLSKADYEKHKVYACEVTHQGLSSPVTKSFNRGEC	–	–	–	18.6 % (control = 100)	49.8 % (control = 100)	0.37
GpH7-A5/GpH7-B3 variant G236_13S/GpL16-k0 (antibody, human IgG1, kappa, IgG1, anti-glypican-3; also called He Ab) heavy 1: not shown heavy 2: not shown light: DIVMTQSPLSLPVTPGEPASISCQASESLVHSNRNTYLHWYLQKPGQSPQLLIYKVSNRFSGVPDRFSGSGSGTDFTLKISRVEAEDVGVYYCSQNTHVPPTFGQGTKVEIERTVAAPSVFIFPPSDEQLKSGTASVVCLLNNFYPREAKVQWKVDNALQSGNSQESVTEQDSKDSTYSLSSTLTLSKADYEKHKVYACEVTHQGLSSPVTKSFNRGEC	–	–	–	64.8 % (control = 100)	96.7 % (control = 100)	0.67
GpH7-A5/GpH7-B3 variant G236_09D/GpL16-k0 (antibody, human IgG1, kappa, IgG1, anti-glypican-3; also called He Ab) heavy 1: not shown heavy 2: not shown light: DIVMTQSPLSLPVTPGEPASISCQASESLVHSNRNTYLHWYLQKPGQSPQLLIYKVSNRFSGVPDRFSGSGSGTDFTLKISRVEAEDVGVYYCSQNTHVPPTFGQGTKVEIERTVAAPSVFIFPPSDEQLKSGTASVVCLLNNFYPREAKVQWKVDNALQSGNSQESVTEQDSKDSTYSLSSTLTLSKADYEKHKVYACEVTHQGLSSPVTKSFNRGEC	–	–	–	71.2 % (control = 100)	167 % (control = 100)	0.43

Now from value to binder:

He_2aH/2b (IIaH/IIb) (FcγRIIa H [1])	He/Con_2aH (FcγRIIa H [2])	He/Con_2b (FcγRIIb)	He/Con_3a [3]	He/Con_2b [4]	He_3a/2b (IIIa/IIb) [5]	Binder
0.66 ratio	37.3 % of control	56 % of control	–	–	–	GpH7-A5/GpH7-B3 variant P238_01G/GpL16-k0 (antibody, human IgG1, kappa, Heterodimerized antibody, alteration in one H chain only; also called He Ab P238G) heavy 1: not shown heavy 2: not shown light: DIVMTQSPLSLPVTPGEPASISCQASESLVHSNRNTYLHWYLQKPGQSPQLLIYKVSNRFSGVPDRFSGSGSGTDFTLKISRVEAEDVGVYYCSQNTHVPPTFGQGTKVEIERTVAAPSVFIFPPSDEQLKSGTASVVCLLNNFYPREAKVQWKVDNALQSGNSQESVTEQDSKDSTYSLSSTLTLSKADYEKHKVYACEVTHQGLSSPVTKSFNRGEC
0.27 ratio	47.6 % of control	174 % of control	–	–	–	GpH7-A5/GpH7-B3 variant P238_06M/GpL16-k0 (antibody, human IgG1, kappa, Heterodimerized antibody, alteration in one H chain only; also called He Ab P238M) heavy 1: not shown heavy 2: not shown light: DIVMTQSPLSLPVTPGEPASISCQASESLVHSNRNTYLHWYLQKPGQSPQLLIYKVSNRFSGVPDRFSGSGSGTDFTLKISRVEAEDVGVYYCSQNTHVPPTFGQGTKVEIERTVAAPSVFIFPPSDEQLKSGTASVVCLLNNFYPREAKVQWKVDNALQSGNSQESVTEQDSKDSTYSLSSTLTLSKADYEKHKVYACEVTHQGLSSPVTKSFNRGEC
0.74 ratio	89 % of control	120 % of control	–	–	–	GpH7-A5/GpH7-B3 variant P238_03V/GpL16-k0 (antibody, human IgG1, kappa, Heterodimerized antibody, alteration in one H chain only; also called He Ab P238V) heavy 1: not shown heavy 2: not shown light: DIVMTQSPLSLPVTPGEPASISCQASESLVHSNRNTYLHWYLQKPGQSPQLLIYKVSNRFSGVPDRFSGSGSGTDFTLKISRVEAEDVGVYYCSQNTHVPPTFGQGTKVEIERTVAAPSVFIFPPSDEQLKSGTASVVCLLNNFYPREAKVQWKVDNALQSGNSQESVTEQDSKDSTYSLSSTLTLSKADYEKHKVYACEVTHQGLSSPVTKSFNRGEC
–	–	–	10.9 % (control = 100)	24.6 % (control = 100)	0.44	GpH7-A5/GpH7-B3 variant G237_05P/GpL16-k0 (antibody, human IgG1, kappa, IgG1, anti-glypican-3; also called He Ab) heavy 1: not shown heavy 2: not shown light: DIVMTQSPLSLPVTPGEPASISCQASESLVHSNRNTYLHWYLQKPGQSPQLLIYKVSNRFSGVPDRFSGSGSGTDFTLKISRVEAEDVGVYYCSQNTHVPPTFGQGTKVEIERTVAAPSVFIFPPSDEQLKSGTASVVCLLNNFYPREAKVQWKVDNALQSGNSQESVTEQDSKDSTYSLSSTLTLSKADYEKHKVYACEVTHQGLSSPVTKSFNRGEC
